Data on 20 molecules can be found in patent publication US20250339569A1 (3B PHARMACEUTICALS, published 2025).

Starred links: 1 amine or outer side, 2 acyl side, 3 side chain; linkers in the order of their positions; H or OH if unused. Positions of bridges follow the written chain, without caps; N, C: chain ends. Non-standard residues stand in square brackets, D forms with d. Primed or numbered codes have the meaning given here. *: point of attachment. Af3(DImAc) = 3-aminophenylalanine acylated on the ring amine with 2-{2,5-dioxo-octahydroimidazo[4,5-d]imidazolidin-1-yl}acetic acid, O=C(CN1C(=O)NC2NC(=O)NC21)Nc1cccc(C[C@H](N[*:1])C(=O)[*:2])c1; DOTA(In) = O=C1CN2CCN3CCN(CC(=O)*)CCN(CC2)CC(=O)[O][In]([O]1)[O]C(=O)C3; APAc″ = 2-(4-(amino)piperidin-1-yl)acetic acid, NC1CCN(CC(=O)*)CC1; DOTA = O=C(O)CN1CCN(CC(=O)O)CCN(CC(=O)*)CCN(CC(=O)O)CC1; Phe(4-CF3) = N[C@@H](Cc1ccc(C(F)(F)F)cc1)C(=O)O; Phe(4-I) = N[C@@H](Cc1ccc(I)cc1)C(=O)O; mXylylene = c1cc(C[*:1])cc(C[*:2])c1; Cha = N[C@@H](CC1CCCCC1)C(=O)O; 4Amb = NCc1ccc(C(=O)O)cc1; AGLU′ = not defined here; 4Amc = not defined here; APAc = not defined here; Inp′ = not defined here; Dap = NC[C@H](N)C(=O)O; Bn = c1ccc(C*)cc1

Sequences and labels used below:
B1: 3BP-4261 (peptide)
peptide: {DOTA-4Amb}-DCE[dP]DWLTW[Dap]C-NH2
modifications: lactam 10-1; linker 2-11 via mXylylene
SMILES: CC(C)C[C@@H]1NC(=O)[C@H](Cc2c[nH]c3ccccc23)NC(=O)[C@H](CC(=O)O)NC(=O)[C@H]2CCCN2C(=O)[C@H](CCC(=O)O)NC(=O)[C@@H]2CSCc3cccc(c3)CSC[C@@H](C(N)=O)NC(=O)[C@H](CNC(=O)C[C@H](NC(=O)c3ccc(CNC(=O)CN4CCN(CC(=O)O)CCN(CC(=O)O)CCN(CC(=O)O)CC4)cc3)C(=O)N2)NC(=O)[C@H](Cc2c[nH]c3ccccc23)NC(=O)[C@H]([C@@H](C)O)NC1=O
B2: 3BP-4257 (peptide)
peptide: {DOTA}-SDCE[dP]DWLTW[Dap]C-NH2
modifications: lactam 11-2; linker 3-12 via mXylylene
SMILES: CC(C)C[C@@H]1NC(=O)[C@H](Cc2c[nH]c3ccccc23)NC(=O)[C@H](CC(=O)O)NC(=O)[C@H]2CCCN2C(=O)[C@H](CCC(=O)O)NC(=O)[C@@H]2CSCc3cccc(c3)CSC[C@@H](C(N)=O)NC(=O)[C@H](CNC(=O)C[C@H](NC(=O)[C@H](CO)NC(=O)CN3CCN(CC(=O)O)CCN(CC(=O)O)CCN(CC(=O)O)CC3)C(=O)N2)NC(=O)[C@H](Cc2c[nH]c3ccccc23)NC(=O)[C@H]([C@@H](C)O)NC1=O
B3: 3BP-3934 (peptide)
peptide: {DOTA}-YCE[dP]KWLEWSC-NH2
modifications: linker 2-11 via mXylylene; lactam 5-8
SMILES: CC(C)C[C@@H]1NC(=O)[C@H](Cc2c[nH]c3ccccc23)NC(=O)[C@@H]2CCCCNC(=O)CC[C@H](NC1=O)C(=O)N[C@@H](Cc1c[nH]c3ccccc13)C(=O)N[C@@H](CO)C(=O)N[C@H](C(N)=O)CSCc1cccc(c1)CSC[C@H](NC(=O)[C@H](Cc1ccc(O)cc1)NC(=O)CN1CCN(CC(=O)O)CCN(CC(=O)O)CCN(CC(=O)O)CC1)C(=O)N[C@@H](CCC(=O)O)C(=O)N1CCC[C@@H]1C(=O)N2
B4: 3BP-3888 (peptide)
peptide: Ac-VYCK[dP]DWLEWSC-NH2
modifications: linker 3-12 via mXylylene; lactam 4-9
SMILES: CC(=O)N[C@H](C(=O)N[C@@H](Cc1ccc(O)cc1)C(=O)N[C@H]1CSCc2cccc(c2)CSC[C@@H](C(N)=O)NC(=O)[C@H](CO)NC(=O)[C@H](Cc2c[nH]c3ccccc23)NC(=O)[C@@H]2CCC(=O)NCCCC[C@H](NC1=O)C(=O)N1CCC[C@@H]1C(=O)N[C@@H](CC(=O)O)C(=O)N[C@@H](Cc1c[nH]c3ccccc13)C(=O)N[C@@H](CC(C)C)C(=O)N2)C(C)C
B5: 3BP-3901 (peptide)
peptide: Ac-VYCE[dP]EWLKWSC-NH2
modifications: linker 3-12 via mXylylene; lactam 6-9
SMILES: CC(=O)N[C@H](C(=O)N[C@@H](Cc1ccc(O)cc1)C(=O)N[C@H]1CSCc2cccc(c2)CSC[C@@H](C(N)=O)NC(=O)[C@H](CO)NC(=O)[C@H](Cc2c[nH]c3ccccc23)NC(=O)[C@@H]2CCCCNC(=O)CC[C@H](NC(=O)[C@H]3CCCN3C(=O)[C@H](CCC(=O)O)NC1=O)C(=O)N[C@@H](Cc1c[nH]c3ccccc13)C(=O)N[C@@H](CC(C)C)C(=O)N2)C(C)C
B6: 3BP-4046 (peptide)
peptide: Ac-VYCE[dP]KWLDWSC-NH2
modifications: linker 3-12 via mXylylene; lactam 6-9
SMILES: CC(=O)N[C@H](C(=O)N[C@@H](Cc1ccc(O)cc1)C(=O)N[C@H]1CSCc2cccc(c2)CSC[C@@H](C(N)=O)NC(=O)[C@H](CO)NC(=O)[C@H](Cc2c[nH]c3ccccc23)NC(=O)[C@@H]2CC(=O)NCCCC[C@H](NC(=O)[C@H]3CCCN3C(=O)[C@H](CCC(=O)O)NC1=O)C(=O)N[C@@H](Cc1c[nH]c3ccccc13)C(=O)N[C@@H](CC(C)C)C(=O)N2)C(C)C
B7: 3BP-4052 (peptide)
peptide: {DOTA(In)-APAc}-VYCE[dP]KWLEWSC-NH2
modifications: linker 3-12 via mXylylene; lactam 6-9; reading uncertain; also: indium complexed by DOTA

The target of one assay is T1, Fc-fusion protein of human carbonic anhydrase IX (human, UniProt Q16790 38-414). The assay is described as follows: SPR, captured hCAIX-Fc; pKD category A: >8.0.
B1: the pKD was > 8 pkd.
Same read-out and setting: the figure for {DOTA-Gab}-DCE[dP]DWLTW[Dap]C-NH2 (lactam 1-10; linker 2-11 via mXylylene) [3BP-4263] is > 8 pkd; for {DOTA-Inp′}-DCE[dP]DWLTW[Dap]C-NH2 (lactam 10-1; linker 2-11 via mXylylene) [3BP-4256] it is > 8 pkd; for {DOTA-APAc″}-VYCE[dP]D[Af3(DImAc)]LTWSC-NH2 (linker 3-12 via mXylylene) [3BP-4341] it is > 8 pkd.
On the same count and under the same terms, under {DOTA-APAc″}-V[Dap]CE[dP]DWLTWDC-NH2 (lactam 2-11; linker 3-12 via mXylylene) [3BP-4176] stands > 8 pkd; under {DOTA-APAc}-VYCE[dP]D[Phe(4-I)]LTWSC-NH2 (linker 3-12 via mXylylene; not fully specified; reading uncertain) [3BP-4134], > 8 pkd; under {DOTA-APAc″}-VYCE[dP]D[Phe(4-CF3)]LTWSC-NH2 (linker 3-12 via mXylylene; not fully specified) [3BP-4139], > 8 pkd.
Same read-out and setting: the figure for B2 is > 8 pkd; for {DOTA-4Amc}-DCE[dP]DWLTW[Dap]C-NH2 (lactam 10-1; linker 2-11 via mXylylene; reading uncertain) [3BP-4258] it is > 8 pkd.
For the molecule {DOTA-APAc″}-VYCE[dP]DW[Cha]TWSC-NH2 (linker 3-12 via mXylylene) [3BP-4143], the pKD was > 8 pkd.
The same measure, in the same setting: the figure for {DOTA-APAc″}-DCE[dP]DWLTW[Dap]C-NH2 (lactam 10-1; linker 2-11 via mXylylene) [3BP-4254] is > 8 pkd.
Regarding B3, the pKD is > 8 pkd.

A further assay concerns the target human carbonic anhydrase 9 (CAIX) (human, UniProt Q16790 38-459). The assay is described as follows: FACS competition on HT-29 cells, competitor tracer 3BP-2776; category B = pIC50 7.1-8.0. Here is the method: CAIX-expressing human HT-29 colorectal cancer cells (DSMZ, RRID: CVCL_0320) were cultured in McCoys's 5A modified medium (Biochrom, #F1015) including 10% fetal calf serum (FCS), 2 mM L-glutamine, 100 U/ml penicillin and 100 μg/mL streptomycin. Cells were detached with Accutase (Biolegend, #423201) and washed in FACS buffer (PBS including 1% FCS). Cells were diluted in FACS buffer to a final concentration of 500.000 cells per ml. 200 μL of the cell suspension were transferred to a u-shaped non-binding 96-well plate (Greiner) and cells were washed in ice-cold FACS buffer.
When biotinylated compounds were used an additional incubation step with 1 μg/mL APC-Streptavidin (Miltenyi; #130-106-791) in 50 μL FACS buffer for 30 minutes on ice was performed.
Cells were washed twice with ice-cold FACS buffer and analyzed in an Attune NxT flow cytometer (Thermo Fisher). Median fluorescence intensities (MFI) of the APC/Cy5-channel were calculated by Attune NxT software.
Molecule B4 yielded a pIC50 of 7.1 to 8 pic50.
The same measure, in the same setting: under B5 stands 7.1 to 8 pic50.
On the same count and under the same terms, the figure for {DOTA-APAc}-VYCE[dP]DY(Bn)LTWSC-NH2 (linker 3-12 via mXylylene; not fully specified; reading uncertain) [3BP-4137] is 7.1 to 8 pic50.
The same measure, in the same setting: under {DOTA-APAc}-VYCE[dP]E(AGLU′)WLTWSC-NH2 (linker 3-12 via mXylylene; reading uncertain) [3BP-4120] stands 7.1 to 8 pic50; under {DOTA-APAc}-VYCE[dK]SWLEWSC-NH2 (linker 3-12 via mXylylene; lactam 5-9; reading uncertain) [3BP-4115], 7.1 to 8 pic50; under B6, 7.1 to 8 pic50.
Consider B7, for which the pIC50 lay in the range of 7.1 to 8 pic50.
Take {DOTA-APAc}-VYCE[dP]KWLEWSC-NH2 (linker 3-12 via mXylylene; lactam 6-9; reading uncertain) [3BP-3933]: the pIC50 fell in the range of 7.1 to 8 pic50.

The target in the next assay is T1, Fc-fusion protein of human carbonic …. The experiment in a line: SPR, captured hCAIX-Fc; t1/2 category C: 2.1-5.0 min. Here is the method: Stock solutions of test compounds were prepared by dissolving each compound in DMSO. DMSO stock solution were diluted 1:1000 in Running Buffer without DMSO. […] SPR binding analyses were performed in Single Cycle Kinetic (SCK) mode at 25° C.
For each test compound, SPR raw data in the form of resonance units (RU) were plotted as sensorgrams using the Biacore™ T200 control software. The signal from the blank sensorgram was subtracted from that of the test compound sensorgram (blank corrected). The blank corrected sensorgram was corrected for baseline drift by subtracting the sensorgram of a SCK run without the test compound (running buffer only). […] Raw data and fit results were imported as text files in IDBS. The pKD value (negative decadic logarithm of dissociation constant) was calculated in the IDBS excel template.
On the technique in general: In SPR one partner is held on a chip, and binding of the other changes the refractive index at the surface.
Turning to B1, the “t1/2 (half-life of the complex, SPR)” value lay in the range of 2.1 to 5 min.
Still for that read-out and setting: the figure for {DOTA-Gab}-DCE[dP]DWLTW[Dap]C-NH2 (lactam 1-10; linker 2-11 via mXylylene) [3BP-4263] is 2.1 to 5 min.
Still for that read-out and setting: the figure for {DOTA-Inp′}-DCE[dP]DWLTW[Dap]C-NH2 (lactam 10-1; linker 2-11 via mXylylene) [3BP-4256] is 2.1 to 5 min.
The same measure, in the same setting: the figure for {DOTA-APAc″}-VYCE[dP]D[Af3(DImAc)]LTWSC-NH2 (linker 3-12 via mXylylene) [3BP-4341] is 2.1 to 5 min.
As for {DOTA-APAc″}-V[Dap]CE[dP]DWLTWDC-NH2 (lactam 2-11; linker 3-12 via mXylylene) [3BP-4176], the “t1/2 (half-life of the complex, SPR)” value was in the range of 2.1 to 5 min.
Same read-out and setting: the figure for {DOTA-APAc}-VYCE[dP]D[Phe(4-I)]LTWSC-NH2 (linker 3-12 via mXylylene; not fully specified; reading uncertain) [3BP-4134] is 2.1 to 5 min; for {DOTA-APAc″}-VYCE[dP]D[Phe(4-CF3)]LTWSC-NH2 (linker 3-12 via mXylylene; not fully specified) [3BP-4139] it is 2.1 to 5 min; for B2 it is 2.1 to 5 min.
Still for that read-out and setting: under {DOTA-4Amc}-DCE[dP]DWLTW[Dap]C-NH2 (lactam 10-1; linker 2-11 via mXylylene; reading uncertain) [3BP-4258] stands 2.1 to 5 min; under {DOTA-APAc″}-VYCE[dP]DW[Cha]TWSC-NH2 (linker 3-12 via mXylylene) [3BP-4143], 2.1 to 5 min; under {DOTA-APAc″}-DCE[dP]DWLTW[Dap]C-NH2 (lactam 10-1; linker 2-11 via mXylylene) [3BP-4254], 2.1 to 5 min.
On the same count and under the same terms, under B3 stands 2.1 to 5 min.
